Measured values taken from patent US20150010566A1.

How the values were obtained:
Experiment in all cases: cell-based or functional assay
[1] = target: HA of H5N1 A/turkey/Turkey/05 virus (Influenza A virus H5N1 A/turkey/Turkey/05)
[2] = target: HA of Influenza H1N1 (A/Neth/602/2009), on infected MDCK cells or on virus (Influenza A virus H1N1 A/Neth/602/2009 (host Human))
[3] = target: HA of Influenza H3N2 (A/Swine/St. Oedenrode/1996), on infected MDCK cells or on virus (Influenza A virus H3N2 A/Swine/St. Oedenrode/1996 (host Swine))
[4] = target: HA of high pathogenic H7N7 (A/Ch/Neth/621557/03), on infected MDCK cells or on virus (Influenza A virus H7N7 A/Ch/Neth/621557/03 (host Chicken))
[5] = target: HA of low pathogenic H7N1 (A/Ch/Italy/1067/1999), on infected MDCK cells or on virus (Influenza A virus H7N1 A/Ch/Italy/1067/1999 (host Chicken))

What does the source list for CR8020 (antibody)?
IC50, in vitro virus neutralization on MDCK cells [1]: > 15 µg/mL; IC50, in vitro virus neutralization on MDCK cells [2]: > 15 µg/mL; IC50, in vitro virus neutralization on MDCK cells [3]: > 15 µg/mL; IC50, in vitro virus neutralization on MDCK cells [4]: 0.6 µg/mL; IC50, in vitro virus neutralization on MDCK cells [5]: > 15 µg/mL
